According to paper PMC9482650, “Quantitative fragmentomics allow affinity mapping of interactomes” (Nature Communications, 2022):
Numbering of substitutions follows the chain as printed.

B1: HPV73-E6, Q82005 (peptide)
chain: SGSRPSATVV
B2: ACVR2A, P27037 (peptide)
chain: VDFPPKESSL

The binders below were run against T1, APBA1_2, Q02410 (assay: holdup assay). Details: plain residues with an end cap or a label only (N-terminal biotin on a linker: ttds).
T1 sequence (Q02410 742-832, limits assumed, looked up): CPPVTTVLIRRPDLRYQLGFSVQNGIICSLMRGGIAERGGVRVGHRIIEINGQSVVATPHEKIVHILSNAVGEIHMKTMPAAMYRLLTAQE
Set-up: key: below the threshold = too weak to quantify, mostly under pKd 3.1 to 4

| Binder | pKd |
| --- | --- |
| B1 | 4.02 |
| B2 | 3.33 |

Each binder was assayed against T2, APBA2_2, Q99767 (assay: holdup assay). Details: plain residues with an end cap or a label only (N-terminal biotin on a linker: ttds).
T2 sequence (Q99767 654-744, limits assumed, looked up): T1 sequence (Q02410 742-832, limits assumed, looked up) with R10K, R15K, P59A, H65Q, I66A, A70S, Y84F, A89G
Set-up: key: below the threshold = too weak to quantify, mostly under pKd 3.1 to 4

| Binder | pKd |
| --- | --- |
| B1 | below the threshold |
| B2 | below the threshold |

The binders below were run against T3, CARD11, Q9BXL7 (assay: holdup assay). Details: plain residues with an end cap or a label only (N-terminal biotin on a linker: ttds).
T3 sequence (Q9BXL7 662-765, limits assumed, looked up): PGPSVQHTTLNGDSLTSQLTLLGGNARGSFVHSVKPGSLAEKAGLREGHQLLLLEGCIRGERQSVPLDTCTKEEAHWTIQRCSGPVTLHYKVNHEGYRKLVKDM
Set-up: key: below the threshold = too weak to quantify, mostly under pKd 3.1 to 4

| Binder | pKd |
| --- | --- |
| B1 | below the threshold |
| B2 | below the threshold |

The binders below were run against T4, DFNB31_2, Q9P202 (assay: holdup assay). Details: plain residues with an end cap or a label only (N-terminal biotin on a linker: ttds).
T4 sequence (Q9P202 274-371, limits assumed, looked up): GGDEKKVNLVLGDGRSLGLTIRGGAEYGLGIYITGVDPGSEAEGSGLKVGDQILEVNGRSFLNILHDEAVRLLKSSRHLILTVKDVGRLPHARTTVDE
Set-up: key: below the threshold = too weak to quantify, mostly under pKd 3.1 to 4

| Binder | pKd |
| --- | --- |
| B1 | below the threshold |
| B2 | 3.46 |

These binders were tested against DLG4_2, P78352 (assay: holdup assay). Details: plain residues with an end cap or a label only (N-terminal biotin on a linker: ttds).
Set-up: key: below the threshold = too weak to quantify, mostly under pKd 3.1 to 4

Chain of DLG4_2, P78352 (P78352 155-259): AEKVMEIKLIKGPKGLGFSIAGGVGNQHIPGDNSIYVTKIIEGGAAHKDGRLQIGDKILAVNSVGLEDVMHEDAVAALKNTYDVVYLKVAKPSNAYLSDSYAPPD

| Binder | pKd |
| --- | --- |
| B1 | 4.14 |
| B2 | 3.33 |

Each binder was assayed against T5, FRMPD1, Q5SYB0 (assay: holdup assay). Details: plain residues with an end cap or a label only (N-terminal biotin on a linker: ttds).
T5 sequence (Q5SYB0 52-145, limits assumed, looked up): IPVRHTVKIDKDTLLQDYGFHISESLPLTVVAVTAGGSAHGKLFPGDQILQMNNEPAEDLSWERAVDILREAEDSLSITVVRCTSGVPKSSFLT
Set-up: key: below the threshold = too weak to quantify, mostly under pKd 3.1 to 4

| Binder | pKd |
| --- | --- |
| B1 | below the threshold |
| B2 | below the threshold |

What follows are binders tested against FRMPD2_1, Q68DX3 (assay: holdup assay). Details: plain residues with an end cap or a label only (N-terminal biotin on a linker: ttds).
Set-up: key: below the threshold = too weak to quantify, mostly under pKd 3.1 to 4

Chain of FRMPD2_1, Q68DX3 (Q68DX3 770-861): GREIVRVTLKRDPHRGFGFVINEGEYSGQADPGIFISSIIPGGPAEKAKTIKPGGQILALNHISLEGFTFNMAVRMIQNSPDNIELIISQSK

| Binder | pKd |
| --- | --- |
| B1 | 3.51 |
| B2 | 3.82 |

The binders below were run against IL16_1, Q14005 (assay: holdup assay). Details: plain residues with an end cap or a label only (N-terminal biotin on a linker: ttds).
Set-up: key: below the threshold = too weak to quantify, mostly under pKd 3.1 to 4

Chain of IL16_1, Q14005 (Q14005 210-306): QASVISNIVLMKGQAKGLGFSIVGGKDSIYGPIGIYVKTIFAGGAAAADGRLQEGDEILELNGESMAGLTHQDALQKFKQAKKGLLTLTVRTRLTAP

| Binder | pKd |
| --- | --- |
| B1 | below the threshold |
| B2 | below the threshold |

These binders were tested against Inadl_3, Q8NI35 (assay: holdup assay). Details: plain residues with an end cap or a label only (N-terminal biotin on a linker: ttds).
Set-up: key: below the threshold = too weak to quantify, mostly under pKd 3.1 to 4

Chain of Inadl_3, Q8NI35 (Q8NI35 359-469): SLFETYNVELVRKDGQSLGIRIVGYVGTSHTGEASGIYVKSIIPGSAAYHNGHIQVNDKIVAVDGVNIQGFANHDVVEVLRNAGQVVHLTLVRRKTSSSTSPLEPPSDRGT

| Binder | pKd |
| --- | --- |
| B1 | below the threshold |
| B2 | below the threshold |

The binders below were run against LAP2, Q96RT1 (assay: holdup assay). Details: plain residues with an end cap or a label only (N-terminal biotin on a linker: ttds).
Set-up: key: below the threshold = too weak to quantify, mostly under pKd 3.1 to 4

Chain of LAP2, Q96RT1 (Q96RT1 other isoform, or with tags, fused parts or gaps): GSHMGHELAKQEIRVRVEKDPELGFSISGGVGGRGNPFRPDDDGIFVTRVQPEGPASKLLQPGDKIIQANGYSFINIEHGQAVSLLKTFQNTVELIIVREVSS

| Binder | pKd |
| --- | --- |
| B1 | below the threshold |
| B2 | below the threshold |

These binders were tested against LIMK2, P53671 (assay: holdup assay). Details: plain residues with an end cap or a label only (N-terminal biotin on a linker: ttds).
Set-up: key: below the threshold = too weak to quantify, mostly under pKd 3.1 to 4

Chain of LIMK2, P53671 (P53671 143-248): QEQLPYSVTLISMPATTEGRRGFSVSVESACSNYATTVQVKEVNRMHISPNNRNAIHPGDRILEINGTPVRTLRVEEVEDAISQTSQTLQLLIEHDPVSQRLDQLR

| Binder | pKd |
| --- | --- |
| B1 | below the threshold |
| B2 | below the threshold |

Each binder was assayed against LNX1_3, Q8TBB1 (assay: holdup assay). Details: plain residues with an end cap or a label only (N-terminal biotin on a linker: ttds).
Set-up: key: below the threshold = too weak to quantify, mostly under pKd 3.1 to 4

Chain of LNX1_3, Q8TBB1 (Q8TBB1 500-596): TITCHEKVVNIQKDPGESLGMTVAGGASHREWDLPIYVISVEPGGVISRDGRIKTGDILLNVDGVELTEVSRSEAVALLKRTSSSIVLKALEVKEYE

| Binder | pKd |
| --- | --- |
| B1 | below the threshold |
| B2 | below the threshold |

These binders were tested against T6, LNX2_3, Q8N448 (assay: holdup assay). Details: plain residues with an end cap or a label only (N-terminal biotin on a linker: ttds).
T6 sequence (Q8N448 463-564, limits assumed, looked up): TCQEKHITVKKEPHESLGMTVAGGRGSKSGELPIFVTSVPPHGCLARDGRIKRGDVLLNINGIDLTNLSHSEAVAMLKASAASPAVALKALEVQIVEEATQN
Set-up: key: below the threshold = too weak to quantify, mostly under pKd 3.1 to 4

| Binder | pKd |
| --- | --- |
| B1 | below the threshold |
| B2 | below the threshold |

What follows are binders tested against T7, MPDZ_10, O75970 (assay: holdup assay). Details: plain residues with an end cap or a label only (N-terminal biotin on a linker: ttds).
T7 sequence (O75970 1624-1722, limits assumed, looked up): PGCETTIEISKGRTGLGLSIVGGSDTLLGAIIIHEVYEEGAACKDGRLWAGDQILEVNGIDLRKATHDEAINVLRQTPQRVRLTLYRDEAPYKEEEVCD
Set-up: key: below the threshold = too weak to quantify, mostly under pKd 3.1 to 4

| Binder | pKd |
| --- | --- |
| B1 | 3.74 |
| B2 | below the threshold |

What follows are binders tested against T8, MPP6, Q9NZW5 (assay: holdup assay). Details: plain residues with an end cap or a label only (N-terminal biotin on a linker: ttds).
T8 sequence (Q9NZW5 125-219, limits assumed, looked up): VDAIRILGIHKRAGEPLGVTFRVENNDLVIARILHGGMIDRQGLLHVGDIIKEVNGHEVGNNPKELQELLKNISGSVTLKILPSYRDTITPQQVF
Set-up: key: below the threshold = too weak to quantify, mostly under pKd 3.1 to 4

| Binder | pKd |
| --- | --- |
| B1 | 3.57 |
| B2 | below the threshold |

These binders were tested against T9, MPP7, Q5T2T1 (assay: holdup assay). Details: plain residues with an end cap or a label only (N-terminal biotin on a linker: ttds).
T9 sequence (Q5T2T1 134-230, limits assumed, looked up): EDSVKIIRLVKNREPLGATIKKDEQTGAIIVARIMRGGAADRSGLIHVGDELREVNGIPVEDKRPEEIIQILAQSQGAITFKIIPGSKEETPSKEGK
Set-up: key: below the threshold = too weak to quantify, mostly under pKd 3.1 to 4

| Binder | pKd |
| --- | --- |
| B1 | below the threshold |
| B2 | below the threshold |

The binders below were run against T10, NHERF3_3, Q5T2W1 (assay: holdup assay). Details: plain residues with an end cap or a label only (N-terminal biotin on a linker: ttds).
T10 sequence (Q5T2W1 238-333, limits assumed, looked up): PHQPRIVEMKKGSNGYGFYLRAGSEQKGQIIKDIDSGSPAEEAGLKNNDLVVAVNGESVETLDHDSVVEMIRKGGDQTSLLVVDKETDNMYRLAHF
Set-up: key: below the threshold = too weak to quantify, mostly under pKd 3.1 to 4

| Binder | pKd |
| --- | --- |
| B1 | below the threshold |
| B2 | below the threshold |

Each binder was assayed against T11, NHERF3_4, Q5T2W1 (assay: holdup assay). Details: plain residues with an end cap or a label only (N-terminal biotin on a linker: ttds).
T11 sequence (Q5T2W1 373-468, limits assumed, looked up): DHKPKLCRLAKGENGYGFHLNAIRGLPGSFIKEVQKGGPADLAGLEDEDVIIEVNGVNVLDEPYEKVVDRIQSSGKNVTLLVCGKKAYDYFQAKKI
Set-up: key: below the threshold = too weak to quantify, mostly under pKd 3.1 to 4

| Binder | pKd |
| --- | --- |
| B1 | 3.6 |
| B2 | below the threshold |

The binders below were run against NHERF4_2, Q86UT5 (assay: holdup assay). Details: plain residues with an end cap or a label only (N-terminal biotin on a linker: ttds).
Set-up: key: below the threshold = too weak to quantify, mostly under pKd 3.1 to 4

Chain of NHERF4_2, Q86UT5 (Q86UT5 220-308): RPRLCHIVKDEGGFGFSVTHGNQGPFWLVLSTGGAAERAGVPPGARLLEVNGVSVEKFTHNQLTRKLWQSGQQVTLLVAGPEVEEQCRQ

| Binder | pKd |
| --- | --- |
| B1 | below the threshold |
| B2 | below the threshold |

Each binder was assayed against NHERF4_4, Q86UT5 (assay: holdup assay). Details: plain residues with an end cap or a label only (N-terminal biotin on a linker: ttds).
Set-up: key: below the threshold = too weak to quantify, mostly under pKd 3.1 to 4

Chain of NHERF4_4, Q86UT5 (Q86UT5 464-550): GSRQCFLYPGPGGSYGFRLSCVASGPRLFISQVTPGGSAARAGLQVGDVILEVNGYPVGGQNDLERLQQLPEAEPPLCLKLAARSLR

| Binder | pKd |
| --- | --- |
| B1 | below the threshold |
| B2 | below the threshold |

These binders were tested against T12, PDZD2_2, O15018 (assay: holdup assay). Details: plain residues with an end cap or a label only (N-terminal biotin on a linker: ttds).
T12 sequence (O15018 329-429, limits assumed, looked up): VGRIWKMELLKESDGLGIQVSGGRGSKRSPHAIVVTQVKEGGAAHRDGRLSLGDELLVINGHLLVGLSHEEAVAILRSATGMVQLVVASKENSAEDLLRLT
Set-up: key: below the threshold = too weak to quantify, mostly under pKd 3.1 to 4

| Binder | pKd |
| --- | --- |
| B1 | 4.11 |
| B2 | 3.63 |

What follows are binders tested against T13, SHANK1, Q9Y566 (assay: holdup assay). Details: plain residues with an end cap or a label only (N-terminal biotin on a linker: ttds).
T13 sequence (Q9Y566 658-767, limits assumed, looked up): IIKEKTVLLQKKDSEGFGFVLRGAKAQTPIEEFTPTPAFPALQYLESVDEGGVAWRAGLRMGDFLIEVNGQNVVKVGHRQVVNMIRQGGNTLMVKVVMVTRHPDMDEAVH
Set-up: key: below the threshold = too weak to quantify, mostly under pKd 3.1 to 4

| Binder | pKd |
| --- | --- |
| B1 | below the threshold |
| B2 | below the threshold |

What follows are binders tested against T14, TX1BP3, O14907 (assay: holdup assay). Details: plain residues with an end cap or a label only (N-terminal biotin on a linker: ttds).
T14 sequence (O14907 10-122, limits assumed, looked up): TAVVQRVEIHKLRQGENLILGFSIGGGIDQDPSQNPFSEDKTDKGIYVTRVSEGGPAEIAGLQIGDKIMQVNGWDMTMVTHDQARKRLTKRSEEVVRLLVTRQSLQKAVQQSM
Set-up: key: below the threshold = too weak to quantify, mostly under pKd 3.1 to 4

| Binder | pKd |
| --- | --- |
| B1 | below the threshold |
| B2 | 4.13 |
